Assays:
[1] = target: MjNhaP1 D161A mutant (NhaP1 Na+/H+ antiporter from Methanocaldococcus jannaschii) (Methanocaldococcus jannaschii) (UniProt Q60362); experiment: Western blotting; dimers observed by Western blotting; data not shown; no conditions told
[2] = target: MjNhaP1 N160A mutant (NhaP1 Na+/H+ antiporter from Methanocaldococcus jannaschii) (Methanocaldococcus jannaschii) (UniProt Q60362); experiment: as above

Substance	stoichiometry N [1]	stoichiometry N [2]
MjNhaP1 D161A mutant (NhaP1 Na+/H+ antiporter from Methanocaldococcus jannaschii) (from UniProt Q60362 1-426) (natural protein)	2	–
MjNhaP1 N160A mutant (NhaP1 Na+/H+ antiporter from Methanocaldococcus jannaschii) (from UniProt Q60362 1-426) (natural protein)	–	2

Reference: paper PMC4036328
